Where no end group is shown, it is not given here. [ ]: non-standard residue; d: D form. pY = N[C@@H](Cc1ccc(OP(=O)(O)O)cc1)C(=O)O
Target: T1, PTP1B (residue 1-321) (UniProt P18031)
T1 sequence: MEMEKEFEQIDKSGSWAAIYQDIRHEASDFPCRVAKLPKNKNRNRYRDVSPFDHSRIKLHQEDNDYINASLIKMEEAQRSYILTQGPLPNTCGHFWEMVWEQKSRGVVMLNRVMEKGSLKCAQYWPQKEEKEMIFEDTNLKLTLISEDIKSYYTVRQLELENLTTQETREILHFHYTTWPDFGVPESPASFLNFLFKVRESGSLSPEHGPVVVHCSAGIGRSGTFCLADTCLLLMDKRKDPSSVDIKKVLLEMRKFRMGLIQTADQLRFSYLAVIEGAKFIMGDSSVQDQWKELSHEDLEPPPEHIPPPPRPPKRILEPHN

Work on ELD[pY][pY]DSHN [alpha-actinin4 derived di-phospho-tyrosine peptide ELDpYpYDSHN] yielded a kcat/KM of dephosphorylation of the peptide by purified PTP1B of 2.17e+06 M^−1 S^−1.
